Data as given in patent US20100196266A1.
Values belong to the binder of their own block, whether it stands above or below them.

How the values were obtained:
[1] = target: antigen recognised by L243 on canine lymphocytes and canine lymphoma cells (HLA-DR of the dog) (dog); assay: flow cytometry, dog lymphoma aspirate; none 3.24
[2] = target: antigen recognised by L243 on canine lymphocytes and canine lymphoma cells (HLA-DR of the dog) (dog); assay: flow cytometry, dog lymphoma aspirate; none 4.48
[3] = target: antigen recognised by L243 on canine lymphocytes and canine lymphoma cells (HLA-DR of the dog) (dog); assay: flow cytometry, canine lymphoma aspirate 150836; none 4.5
[4] = target: antigen recognised by L243 on canine lymphocytes and canine lymphoma cells (HLA-DR of the dog) (dog); assay: flow cytometry, canine lymphoma aspirate 150836; none 3.2
[5] = target: human leukocyte antigen-DR (HLA-DR) on human lymphoma and leukemia cell lines and human lymphocytes (human); assay: indirect FACS, FITC-GAH Fc, Namalwa cells; none 2.5; control antibody
[6] = target: human leukocyte antigen-DR (HLA-DR) on human lymphoma and leukemia cell lines and human lymphocytes (human); assay: indirect FACS, FITC-GAH Fc, Daudi cells; none 3.1; control antibody
[7] = target: human leukocyte antigen-DR (HLA-DR) on human lymphoma and leukemia cell lines and human lymphocytes (human); assay: indirect FACS, FITC-GAH Fc, Raji cells; none 6.8; control antibody
[8] = target: antigen recognised by L243 on canine lymphocytes and canine lymphoma cells (HLA-DR of the dog) (dog); assay: flow cytometry, canine lymphoma aspirate 150836; none 4.5; control antibody
[9] = target: human leukocyte antigen-DR (HLA-DR) on human lymphoma and leukemia cell lines and human lymphocytes (human); assay: indirect flow cytometry, FITC-GAH Fc, Ramos cells; none 3.1; negative control
[10] = target: human leukocyte antigen-DR (HLA-DR) on human lymphoma and leukemia cell lines and human lymphocytes (human); assay: indirect FACS, FITC-GAH Fc, WSU-FSCCL cells; none 2.6; control antibody
[11] = target: human leukocyte antigen-DR (HLA-DR) on human lymphoma and leukemia cell lines and human lymphocytes (human); assay: indirect flow cytometry, FITC-GAH Fc, Raji cells; none 6.9; negative control
[12] = target: antigen recognised by L243 on canine lymphocytes and canine lymphoma cells (HLA-DR of the dog) (dog); assay: flow cytometry, dog lymphoma aspirate; none 4.48; control antibody
[13] = target: human leukocyte antigen-DR (HLA-DR) on human lymphoma and leukemia cell lines and human lymphocytes (human); assay: indirect flow cytometry, FITC-GAH Fc, WSU-FSCCL cells; none 2.7; negative control
[14] = target: human leukocyte antigen-DR (HLA-DR) on human lymphoma and leukemia cell lines and human lymphocytes (human); assay: indirect FACS, FITC-GAH Fc, SU-DHL-6 cells; none 4.6; control antibody
[15] = target: human leukocyte antigen-DR (HLA-DR) on human lymphoma and leukemia cell lines and human lymphocytes (human); assay: indirect flow cytometry, Namalwa cells, FITC-GAH; none 2.52; control antibody
[16] = target: human leukocyte antigen-DR (HLA-DR) on human lymphoma and leukemia cell lines and human lymphocytes (human); assay: indirect flow cytometry, FITC-GAH Fc, Daudi cells; none 3.2; negative control
[17] = target: antigen recognised by L243 on canine lymphocytes and canine lymphoma cells (HLA-DR of the dog) (dog); assay: flow cytometry, dog lymphoma aspirate; none 3.24; control antibody
[18] = target: human leukocyte antigen-DR (HLA-DR) on human lymphoma and leukemia cell lines and human lymphocytes (human); assay: indirect flow cytometry, FITC-GAH Fc, RL cells; none 2.4; negative control
[19] = target: human leukocyte antigen-DR (HLA-DR) on human lymphoma and leukemia cell lines and human lymphocytes (human); assay: indirect flow cytometry, FITC-GAH Fc, Namalwa cells; none 2.6; negative control
[20] = target: human leukocyte antigen-DR (HLA-DR) on human lymphoma and leukemia cell lines and human lymphocytes (human); assay: indirect FACS, FITC-GAH Fc, Ramos cells; none 3.1; control antibody
[21] = target: antigen recognised by L243 on canine lymphocytes and canine lymphoma cells (HLA-DR of the dog) (dog); assay: flow cytometry, canine lymphoma aspirate 150836; none 3.2; control antibody
[22] = target: human leukocyte antigen-DR (HLA-DR) on human lymphoma and leukemia cell lines and human lymphocytes (human); assay: indirect flow cytometry, FITC-GAH Fc, SU-DHL-6 cells; none 4.6; negative control
[23] = target: human leukocyte antigen-DR (HLA-DR) on human lymphoma and leukemia cell lines and human lymphocytes (human); assay: indirect flow cytometry, Namalwa cells, FITC-GAM; none 2.91; control antibody
[24] = target: antigen recognised by L243 on canine lymphocytes and canine lymphoma cells (HLA-DR of the dog) (dog); assay: flow cytometry, dog lymphoma aspirate; none 3.85
[25] = target: antigen recognised by L243 on canine lymphocytes and canine lymphoma cells (HLA-DR of the dog) (dog); assay: flow cytometry, dog lymphoma aspirate; none 3.37
[26] = target: antigen recognised by L243 on canine lymphocytes and canine lymphoma cells (HLA-DR of the dog) (dog); assay: flow cytometry, canine lymphoma aspirate 150836; none 3.4
[27] = target: antigen recognised by L243 on canine lymphocytes and canine lymphoma cells (HLA-DR of the dog) (dog); assay: flow cytometry, canine lymphoma aspirate 150836; none 3.9

B1: hL243γ4P (humanized L243, IgG4/K isotype with hinge mutation Ser241Pro) (antibody, V domains shown)
VH: QVQLQQSGSELKKPGASVKVSCKASGFTFTNYGMNWVKQAPGQGLKWMGWINTYTREPTYADDFKGRFAFSLDTSVSTAYLQISSLKADDTAVYFCARDITAVVPTGFDYWGQGSLVTVSS
VL: DIQLTQSPSSLSASVGDRVTITCRASENIYSNLAWYRQKPGKAPKLLVFAASNLADGVPSRFSGSGSGTDYTFTISSLQPEDIATYYCQHFWTTPWAFGGGTKLQIKR
mean FL [1]: 5.47
% Positive [2]: 26.3%
% Positive [3]: 26.2%
mean FL [4]: 5.5

B2: hMN-14, labetuzumab (humanized anti-carcinoembryonic antigen IgG1) (antibody, INN chains, looked up, V domains shown)
VH: EVQLVESGGGVVQPGRSLRLSCSASGFDFTTYWMSWVRQAPGKGLEWIGEIHPDSSTINYAPSLKDRFTISRDNAKNTLFLQMDSLRPEDTGVYFCASLYFGFPWFAYWGQGTPVTVSS
VL: DIQLTQSPSSLSASVGDRVTITCKASQDVGTSVAWYQQKPGKAPKLLIYWTSTRHTGVPSRFSGSGSGTDFTFTISSLQPEDIATYYCQQYSLYRSFGQGTKVEIKR
Geometric Mean Fluorescence [5]: 2.36
Geometric Mean Fluorescence [6]: 3.16
Geometric Mean Fluorescence [7]: 6.96
% Positive [8]: 4.6%
Geometric Mean Fluorescence [9]: 3.1
Geometric Mean Fluorescence [10]: 2.66
Geometric Mean Fluorescence [11]: 7
% Positive [12]: 4.63%
Geometric Mean Fluorescence [13]: 2.7
Geometric Mean Fluorescence [14]: 4.94
GEO MEAN Fluorescence [15]: 2.49
Geometric Mean Fluorescence [16]: 3.2
mean FL [17]: 3.24
Geometric Mean Fluorescence [18]: 2.8
Geometric Mean Fluorescence [19]: 2.4
Geometric Mean Fluorescence [20]: 3.13
mean FL [21]: 3.2
Geometric Mean Fluorescence [22]: 4.9

Further lines, results first:

GEO MEAN Fluorescence [23]: 3.32
B3: murine MN-14 (anti-carcinoembryonic antigen) (antibody, from a related filing, V domains shown)
VH: EVKLLESGGGLVQSGGSLKLSCAASGFDFTTYWMSWVRQAPGKGLEWIGEIHPDSSTINYAPSLKDKFIVSRDNAKNTLYLQMSKVRSEDTALYYCASLYFGFPWFAYWGQGTPVTVSA
VL: EIQLTQSHKMMSTSVGDRVSITCKASQDVGTSVAWYQQRPGQSPKLLIYWTSTRHTGVPDRFTGSVSGTDFTLTITNVQSEDLADYFCQQYSLYRSFGGGTKLEIK

% Positive [24]: 77.8%
mean FL [25]: 10.4
mean FL [26]: 10.4
% Positive [27]: 77.8%
B4: murine monoclonal antibody L243 (mL243) (antibody, V domains shown)
VH: QIQLVQSGPELKKPGETVKISCKASGFTFTNYGMNWVKQAPGKGLKWMGWINTYTREPTYADDFKGRFAFSLETSASTAYLQINNLKNEDTAKYFCARDITAVVPTGFDYWGQGTTLTVSS
VL: DIQMTQSPASLSVSVGETVTITCRASENIYSNLAWYRQKQGKSPQLLVFAASNLADGVPSRFSGSGSGTQYSLKINSLQSEDFGDYYCQHFWTTPWAFGGGTNLEIKR
